This test addresses semiSWEET. The experiment in a line: native MS.

On to semiSWEET (natural protein), for which the percent dimer is over 95% and the stoichiometry N (in general, the number of molecules, sites or subunits per partner or assembly) came out at 2.

Values taken from PMC10932606.
